Assay results from the supplement of paper PMC9170038.

Tested on: MS2 coat protein
Experiment: apparent KD of MS2 coat protein; higher = weaker reporter binding
Settings: Eterna round: R107
Procedure: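 RNA-MaP round R107: designed RNA switches with theophylline, tryptophan, arginine or FMN aptamers are transcribed on-chip within common flanks. They are titrated with SNAP-549-labelled MS2 coat protein in RNA-MaP buffer (100 mM Tris pH 7.5, 80 mM KCl, 4 mM MgCl2), without ligand or with the indicated ligand. Median apparent KD per design.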

[1] = input ligand: theophylline 20 uM
[2] = input ligand: theophylline 2 mM
[3] = input ligand: tryptophan 2.4 mM

Sequence | apparent KD of MS2 coat protein (input ligand: arginine 13.2 mM) [nM] | apparent KD of MS2 coat protein (input ligand: none) [nM] | apparent KD of MS2 coat protein [1] [nM] | apparent KD of MS2 coat protein [2] [nM] | apparent KD of MS2 coat protein [3] [nM]
AAACAGUCGGACAUGAGGAUCACCCAUGUGCGAGGACCGGUACGGCCGCCACUCGACAAGGGCGGUCCCGAAGCAAACAUACGCG [Enedquceor] | 12.2 | 16.5 | 33.7 | 21.3 | 25.4
AACAUACAAUAAAAGGUGGAAAUAAGGCGGCGAGGACCGGUACGGCCGCCACUCGCGUACAUGAGGAUCACCCAUGUCUGAAACU [Same State - Tryptophan A (Freestyle 2)] | 12.5 | 22.8 | 24.2 | 28.8 | 19.1
AACGUAUACAGAAGGAGCGUGAUUUAUAAUUCUUUAAAAUAUACAUGAGGAUCACCCAUGUCACAGGUAGGUCGCUGUAUUCGUA [JR_ExcArginiB_Sub024] | 29.8 | 35.7 | 43.1 | 35.2 | 33.2
AUAACAUGAGGAUCACCCAUGUAACCUGAAGGAGCGGACGAAAGUCCAGGUAGGUCGCAGGACUCCUUCAACAUGGGAGAGGGAG [SSArg-A #27 NuPack the Brourd] | 120 | 99 | 131 | 152 | 124
ACGACGCAUAGUGAUACCAGUAGAACAUGAGGAUCACCCAUGUCUGUGGCGCACCACCUCUGCCCUUGGCAGCACUAUGCGUCAG [SSTheo B #9] | 12.6 | – | 17.4 | – | 14.1
AGCAUGUUAGCAGAUACCAGACGUUUUAUGAUCCAUGUAACAUGAGGAUCACCCAUGUAAGUCCCUUGGCAGCUGAAAUAAUGCA [JR_SSTheophyB_Sub011] | 75.7 | – | 187 | – | 127
UACUUACAUGAGGAUCACCCAUGUGGCGAAGGAGCGGCAUGAGGGCCAGGUAGGUCGCGCCAACAUACAUACAUGAGGAUCUCCC [Same State Arginine A 4] | 46.3 | 78.9 | 127 | 118 | 93.1
GGAUAGGACACGGCCGCCACUAUCUAGGAUACUAGCAACAUUUGGGUAUAUGAGGAUCACCCAUAUAGGACCGGGUGUCCUAUCG | 138 | 214 | 330 | 303 | 471
UGAACAUGAGGAUCACCCAUGUAGAGGGAAGGAGCGUCGAAGAAGACAGGUAGGUCGCCCAGAAAGAAAUCCUCAUGGAUAAGAA [Same State Arginine A GF2] | 86.2 | 54.4 | 152 | 122 | 69
GUUAAUAGAAAACUAUUAACAGUGGGUGAACGAGGACCGGUACGGCCGCCACUCGGACAUGAGGAUCACCCAUGUCCAUGUGAAA [AstrosExyTryA#5] | 18.6 | 16.9 | 16.9 | 15.6 | 35.4
UGAUGGUACGGAAGGAGCGUGUAAGAACAAGAACAUGAGGAUCACCCAUGUAUUAAUUUAACACAGGUAGGUCGCCGUGUUAUUG [11.H] | 31.9 | 29.2 | 35.8 | 54.7 | 16
AAUACCGGAUCGGCCGCCACUGGUUGGCCCUGUGUACAUGAGGAUCACCCAUGUCCAUCCCAAGCCAGGACCGGGAUCUUUGUGU [Bedice] | 17.1 | – | 24.9 | 18.5 | –
UUCUUUAAGUCGGCCGCCACUGAAACAUGAGGAUCACCCAUGUAAAUUUGGGAGUAGUUAUAUUACAGGACCGGGACUAUAGUAA [JR_ExcTryptoB_Sub020] | 34.8 | – | 48.8 | 51 | –
UGAGUUCGCUGAUGGGCUACGUCAGGUGAUACCAGCCACUCCCGCGGCCCUUGGCAGCACAUGAGGAUCACCCAUGUAGAGCUUG [Lazaceonus] | 17.9 | 15.7 | 20.4 | 254 | 14.1
CGGCCCUCACGUGAGGAUCACCCACGUGAUACCAGCCUGGAAACAGGCCCUUGGCAGCACUAGGUCAUCAAAGAUGACCAAGCCG [TheoAX 27 #OpenEnded #AlternativeMS2] | 11.8 | 10.7 | 14.1 | 18.9 | 11.3
GAAAGAUGAGGCGGCAGUACCGAUGUCGAUACCAGCAUGAACAAAUGCCCUUGGCAGCGACAUGAGGAUCACCCAUGUAUCUGCG [Reraatlaan] | 14.5 | – | 16.1 | – | 11.6
UCGCUAUUGUCGGCCGCCACUACUGCAGGGAAACAAAUAUAACCACAUGAGGAUCACCCAUGUCUUAGGACCGGGACACCCAUCU [theeternabot_sameState_MS2_Trp_B_2] | 54.8 | – | 126 | 119 | –
